From publication PMC5116005 (Journal of molecular biology, 2016)
Ends that are not written are not given here.

Assays:
NtrC1^C oligomer = experiment: Native PAGE gel binding assay, dye fluorescence visualized at 488 nm; design: species or system Aquifex aeolicus; conditions: 0.16 µM Alexa488-σ54(16-41), ADP-BeF3− at 500 µM, native PAGE 4–15%, Typhoon 488 nm
[1] = target: T1, NtrC1^C(121–387), central AAA+ ATPase domain of A. aeolicus NtrC1 (A. aeolicus, UniProt O67198 121-387); experiment: fluorescence polarisation
T1 sequence (looked up): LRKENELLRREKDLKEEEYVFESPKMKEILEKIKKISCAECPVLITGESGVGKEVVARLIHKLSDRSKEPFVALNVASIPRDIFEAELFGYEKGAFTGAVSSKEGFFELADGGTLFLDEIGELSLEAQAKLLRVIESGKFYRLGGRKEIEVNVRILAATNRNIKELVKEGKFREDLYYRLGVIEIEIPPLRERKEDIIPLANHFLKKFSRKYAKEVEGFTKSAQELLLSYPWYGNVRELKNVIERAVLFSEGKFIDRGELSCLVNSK

[2] = target: Alexa488-full length σ^54 (K2C) (UniProt P24255); experiment: fluorescence polarisation

Alexa488-σ^54(16-41): σ54(16-41) with N-terminal Trp-Cys, cysteine derivatized with Alexa Fluor 488 maleimide (WC(Alexa Fluor 488 maleimide)LLLKQDLELLTYQTQELEKLIHEEVL)
Binding to NtrC1^C oligomer on native gel with ADP-BeF3− (NtrC1^C oligomer): bound to NtrC1^C

B1: Alexa488-σ^54(16-41) (A.a. σ^54(WC-16-41)) (peptide)
chain: WC(Alexa Fluor 488 maleimide)LLLKQDLELLTYQTQELEKLIHEEVL
Kd [1]: 1000 nM

B2: NtrC1^C(121–387), central AAA+ ATPase domain of A. aeolicus NtrC1 (domain or fragment)
chain: T1 sequence (looked up)
Kd [2]: 2000 nM
